B1: MBPVinc8 (maltose binding protein fused to vinculin tail residues 809-1063) (domain or fragment)
chain: SDPGLQKSFLDSGYRILGAVAKVREAFQPQEPDFPPPPPDLEHLHLTDELAPPKPPLPEGEVPPPRPPPPEEKDEEFPEQKAGEAINQPMMMAARQLHDEARKWSSKGNDIIAAAKRMALLMAEMSRLVRGGSGNKRALIQCAKDIAKASDEVTRLAKEVAKQCTDKRIRTNLLQVCERIPTISTQLKILSTVKATMLGRTNISDEESEQATEMLVHNAQNLMQSVKETVREAEAASIKIRTDAGFTLRWVRKTP
B2: gizzard vinculin (intact, 116 kD) (natural protein)
chain: MPVFHTRTIESILEPVAQQISHLVIMHEEGEVDGKAIPDLTAPVSAVQAAVSNLVRVGKETVQTTEDQILKRDMPPAFIKVENACTKLVRAAQMLQADPYSVPARDYLIDGSRGILSGTSDLLLTFDEAEVRKIIRVCKGILEYLTVAEVVETMEDLVTYTKNLGPGMTKMAKMIDERQQELTHQEHRVMLVNSMNTVKELLPVLISAMKIFVTTKNTKSQGIEEALKNRNFTVEKMSAEINEIIRVLQLTSWDEDAWASKDTEAMKRALALIDSKMNQAKGWLRDPNAPPGDAGEQAIRQILDEAGKAGELCAGKERREILGTCKTLGQMTDQLADLRARGQGATPMAMQKAQQVSQGLDLLTAKVENAARKLEAMTNSKQAIAKKIDAAQNWLADPNGGSEGEEHIRGIMSEARKVAELCEEPKERDDILRSLGEISALTAKLSDLRRHGKGDSPEARALAKQIATSLQNLQSKTNRAVANTRPVKAAVHLEGKIEQAQRWIDNPTVDDRGVGQAAIRGLVAEGRRLANVMMGPYRQDLLAKCDRVDQLAAQLADLAARGEGESPQARAIAAQLQDSLKDLKARMQEAMTQEVSDVFSDTTTPIKLLAVAATAPSDTPNREEVFEERAANFENHAARLGATAEKAAAVGTANKTTVEGIQATVKSARELTPQVVSAARILLRNPGNQAAYEHFETMKNQWIDNVEKMTGLVDEAIDTKSLLDASEEAIKKDLDKCKVAMANMQPQMLVAGATSIARRANRILLVAKREVENSEDPKFREAVKAASDELSKTISPMVMDAKAVAGNISDPGLQKSFLDSGYRILGAVAKVREAFQPQEPDFPPPPPDLEHLHLTDELAPPKPPLPEGEVPPPRPPPPEEKDEEFPEQKAGEAINQPMMMAARQLHDEARKWSSKGNDIIAAAKRMALLMAEMSRLVRGGSGNKRALIQCAKDIAKASDEVTRLAKEVAKQCTDKRIRTNLLQVCERIPTISTQLKILSTVKATMLGRTNISDEESEQATEMLVHNAQNLMQSVKETVREAEAASIKIRTDAGFTLRWVRKTPWYQ

Biological target: filamentous actin (F-actin) from rabbit skeletal muscle (rabbit, UniProt P68135 1-377)
Test: co-sedimentation

Row | Binder | stoichiometry N
1 | B1 | 1.18 mol MBPVinc8 per mol actin
2 | B2 | 0.5 mol vinculin per mol actin

Reference: paper PMC2120156 (The Journal of Cell Biology, 1994)
